Results taken from article PMC8710476 (Frontiers in Immunology, 2021).

Biological target: T1, SARS-CoV-2 full-length spike, WT D614G, expressed on the cell surface (SARS-CoV-2, wild type with D614G, UniProt A0A6H1PJZ3, D614G)
T1 construct: also called wild-type spike
Test: flow cytometry on cells
Settings: one partner purified

B1: REGN10987 (class III) (antibody, V domains shown)
VH: QVQLVESGGGVVQPGRSLRLSCAASGFTFSNYAMYWVRQAPGKGLEWVAVISYDGSNKYYADSVKGRFTISRDNSKNTLYLQMNSLRTEDTAVYYCASGSDYGDYLLVYWGQGTLVTVSS
VL: QSALTQPASVSGSPGQSITISCTGTSSDVGGYNYVSWYQQHPGKAPKLMIYDVSKRPSGVSNRFSGSKSGNTASLTISGLQSEDEADYYCNSLTSISTWVFGGGTKLTVL
binding result: binds
